This note sets out measurements from paper PMC8954901, “The Family Keeps on Growing: Four Novel Fungal OYEs Characterized” (International Journal of Molecular Sciences, 2022).

For series [1], the target named is AnOYE8 (Aspergillus niger CBS 513.88). The experiment in a line: native gel or EMSA; BN-PAGE, NativePAGE 3 to 12% Bis-Tris gel, 12.5 ug of sample from each gel filtration peak, 150 V for 2 h; BSA and HSA for comparison of the MWs. Background: In EMSA bound probe runs differently from free probe, usually more slowly.
Series [2] shares this target. Put plainly: crystal structure; N-terminal His6-tagged AnOYE8, 15 mg/mL in Tris-HCl pH 8.0 50 mM; PEG 5000 MME 18% w/v, MES pH 6.5 0.1 M, ammonium sulphate 0.2 M, 293 K; space group C121, four molecules per asymmetric unit.
Series [3] shares this target. The experiment in a line: SEC; analytical gel filtration, Superdex 200 10/300 GL, 150 ug purified protein, Tris-HCl pH 8.0 50 mM, NaCl 150 mM, 1 mL/min; apparent molecular weight from a calibration curve. (SEC sorts molecules by how far they enter the pores of the column.)
In series [4] the target is T1, AnOYE8 (Aspergillus niger, UniProt A2QBV3).
T1 construct: gene An02g01330
T1 sequence (A2QBV3 1-421): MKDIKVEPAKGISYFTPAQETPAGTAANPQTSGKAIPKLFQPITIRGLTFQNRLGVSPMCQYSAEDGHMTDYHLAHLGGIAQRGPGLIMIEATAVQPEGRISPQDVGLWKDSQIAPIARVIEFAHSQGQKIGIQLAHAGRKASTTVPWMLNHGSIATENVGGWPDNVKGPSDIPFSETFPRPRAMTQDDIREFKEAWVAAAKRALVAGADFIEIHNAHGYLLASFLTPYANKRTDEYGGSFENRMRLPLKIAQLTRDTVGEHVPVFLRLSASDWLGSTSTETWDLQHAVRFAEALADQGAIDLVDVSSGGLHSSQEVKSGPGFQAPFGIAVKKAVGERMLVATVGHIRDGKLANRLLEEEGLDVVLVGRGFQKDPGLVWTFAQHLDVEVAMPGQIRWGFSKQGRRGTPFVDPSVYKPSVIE
Put plainly: X-ray crystal structure, […] Å. Particulars: active site, non-covalently bound; pH 6.5 crystals. It counts as binding.

The target of series [5] is BfOYE1 (Botryotinia fuckeliana B05.10). Put plainly: native gel or EMSA.
Series [6] shares this target. Put plainly: SEC; analytical gel filtration, Superdex 200 10/300 GL, 150 ug purified protein, Tris-HCl pH 8.0 50 mM, NaCl 150 mM, 1 mL/min; apparent molecular weight from a calibration curve.
Substrate in series [7]: O=C1C=CC(=O)N1
The experiment in a line: purified protein. The following applies: NADPH 100 µM, Tris-HCl 50 mM pH 8.0, 25 °C, enzyme 20 nM. The series is classed as biochemical, Aspergillus niger.

Substrate in series [8]: NC(=O)C1=CN([C@@H]2O[C@H](COP(=O)(O)OP(=O)(O)OC[C@H]3O[C@@H](n4cnc5c(N)ncnc54)[C@H](OP(=O)(O)O)[C@@H]3O)[C@@H](O)[C@H]2O)C=CC1
The experiment in a line: purified protein. The series is classed as biochemical, Aspergillus niger. The following applies: maleimide 1 mM, Tris-HCl 50 mM pH 8.0, 25 °C, enzyme 20 nM.

Substrate in series [9]: O=C1C=CC(=O)N1
Put plainly: purified protein. It counts as biochemical, Botrytis cinerea. The following applies: NADPH 100 µM, Tris-HCl 50 mM pH 8.0, 25 °C, enzyme 20 nM.

Substrate in series [10]: O=C1C=CCCC1
Put plainly: purified protein. The series is classed as biochemical, Botrytis cinerea. Particulars: NADPH 100 µM, Tris-HCl 50 mM pH 8.0, 25 °C, enzyme 200 nM.

Substrate in series [11]: C=CC(=O)CCCCC
The experiment in a line: purified protein. The series is classed as biochemical, Botrytis cinerea. The following applies: NADPH 100 µM, Tris-HCl 50 mM pH 8.0, 25 °C, enzyme 200 nM.

Substrate in series [12]: CC1=CCCCC1=O
The experiment in a line: purified protein. The series is classed as biochemical, Botrytis cinerea. The following applies: NADPH 100 µM, Tris-HCl 50 mM pH 8.0, 25 °C, enzyme 200 nM.

Substrate in series [13]: O=C1C=CCC1
The experiment in a line: purified protein. The following applies: NADPH 100 µM, Tris-HCl 50 mM pH 8.0, 25 °C, enzyme 200 nM. It counts as biochemical, Botrytis cinerea.

Substrate in series [14]: NC(=O)C1=CN([C@@H]2O[C@H](COP(=O)(O)OP(=O)(O)OC[C@H]3O[C@@H](n4cnc5c(N)ncnc54)[C@H](OP(=O)(O)O)[C@@H]3O)[C@@H](O)[C@H]2O)C=CC1
Put plainly: purified protein. The following applies: maleimide 1 mM, Tris-HCl 50 mM pH 8.0, 25 °C, enzyme 20 nM. The series is classed as biochemical, Botrytis cinerea.

With AnOYE8 (enzyme), the stoichiometry N in series [1], in series [2] and in series [3] was 2 in each case.
Take `Cc1cc2nc3c(=O)[nH]c(=O)nc-3n(C[C@H](O)[C@H](O)[C@H](O)COP(=O)(O)O)c2cc1C` [FMN]: the “X-ray crystal structure, 2.8 Å” value in [4] is “AnOYE8 accommodated a non-covalently bound FMN cofactor molecule”.
As for BfOYE1 (enzyme), the stoichiometry N in series [5] and in series [6] was 2 in each case.

B1: AnOYE2 (Aspergillus niger CBS 513.88) (protein)
chain: MCSKLFQPLQIGKTNLEHRVVMAPLTRFRADSQHVPLPMATTYYEQRASVPGTLLIAEATLISPSAGGVPHAPGVWSEEQVNGWKKITEAVHKKGSFIFCQLIAAGRAADPAQLHAEGGFMLHAPSPIPIEPGMPVPKELDEIEVQEIINDFAMAAKNAIRAGFDGVEIHGANGYLVDQFLQDVSNKRNDKWGGSIPNRARFGLEVAKAVADAIGADRLGFRLSPWNTWQSMKMVDPVPQFTYFVERLQQLGLAYLHVIESRVINNVDCEKEGSIKFLLDVWGKSAPVIVAGGYRPENVENALEEEYKDYKVAVAFGRHFIANPDLPFRIRHDIHLNPYDRESFYTPLQENGYTDYPFSAEFIKSKTKC
Turning to B1, in series [7], the Km came out at 10 ± 0 µM, the kcat was 7.38 ± 0.66 s⁻¹ and the kcat/Km is 738000 M⁻¹ s⁻¹. For the same molecule, in series [8], the Km was 37 ± 10 µM, the kcat was 8 ± 0.4 s⁻¹ and the kcat/Km was found to be 216000 M⁻¹ s⁻¹.

B2: BfOYE4 (Botrytis cinerea B05.10) (protein)
chain: MSTPTPHPQHGVPCGTSTPRPGLLNTPAPGVPFYTPLQSPPSGTALHLSPSTPKLFTPLKIRSLTLQNRIMLSPMCQYSASNGHFTPWHMAHLGGIISRGPGLSMVEATSVLPEGRITPEDSGLWLDSQGDKLKEVVQFAHSQGQLIGIQLSHAGRKASMVAPWLDRSAVATEEAGGWPTKVKGPSAIPYDEHHYKPSAMTLEDIQEFKDAWAASLKRALKAGFDVIEIHNAHGYLLHEFVSPVSNKRTDQYGGSFENRIRLTLEIVEITRKIIPESMPLFLRISATDWLDYEGFGEESWTVADSARLAGILADRGVDLMDVSSGANHPRQKITAGLGYQAPFAKEIKRVVGERMLVGTVGMIGSGRQAEGLLSGMGGERGVDEGEEEEGKGTELDLVIVARGFQKNPGLVWEWAEELGVRIMVAHQMRWGFRGKAGGH
notes: N-terminal His6 tag, E. coli BL21(DE3), 421 residues, dimer in crystal, several oligomeric species in solution; cloning reported elsewhere
Consider B2, for which the Km amounted to 70 ± 10 µM in series [9]; 650 ± 90 µM in series [10]; 2720 ± 500 µM in series [11]; 1830 ± 180 µM in [12]; 1070 ± 120 µM in series [13]; 130 ± 20 µM in [14]. Further, the kcat in [9] was 36.3 ± 1.12 s⁻¹; in series [10], 2.57 ± 0.07 s⁻¹; in series [11], 22.6 ± 1.14 s⁻¹; in series [12] it was 0.56 ± 0.013 s⁻¹; in series [13], 1.06 ± 0.03 s⁻¹; in [14], 89.2 ± 3.37 s⁻¹. Moreover, the kcat/Km was determined as 519000 M⁻¹ s⁻¹ in series [9]; 3900 M⁻¹ s⁻¹ in [10]; 8300 M⁻¹ s⁻¹ in [11]; 300 M⁻¹ s⁻¹ in series [12]; 1000 M⁻¹ s⁻¹ in [13]; 686000 M⁻¹ s⁻¹ in series [14].

The term stoichiometry N denotes a count of units in the complex or per binding partner. For orientation: Km means the substrate concentration at which the rate is half of its maximum. The kcat is the number of substrate molecules converted per active site and unit of time at saturation. For orientation: kcat/Km means the turnover number divided by the Michaelis constant.
